The source of these data is patent publication US20060270596A1 (CENTRE NATIONAL DE LA RECHERCHE SCIENTIFIQUE CNRS, published 2006).

The target of one experiment is T1, chemokine CXCL8 (UniProt P10145 1-99, limits assumed).
T1 construct: 35S-labelled in vitro translation product
T1 sequence (looked up): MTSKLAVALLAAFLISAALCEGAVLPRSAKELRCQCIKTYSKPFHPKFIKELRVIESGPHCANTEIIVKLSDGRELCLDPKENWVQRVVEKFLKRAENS
Kind of experiment: GST pull-down: in vitro translated 35S-labelled protein on the GST fusion immobilised on glutathione sepharose, SDS-PAGE, fluorography.

In experiment [1] the target is T2, human THAP1 (THanatos-Associated-Protein-1), full length (human, UniProt Q9NVV9 1-213).
T2 construct: these tags are not written into the chain; also called hTHAP1; THAP1 wild type
T2 sequence: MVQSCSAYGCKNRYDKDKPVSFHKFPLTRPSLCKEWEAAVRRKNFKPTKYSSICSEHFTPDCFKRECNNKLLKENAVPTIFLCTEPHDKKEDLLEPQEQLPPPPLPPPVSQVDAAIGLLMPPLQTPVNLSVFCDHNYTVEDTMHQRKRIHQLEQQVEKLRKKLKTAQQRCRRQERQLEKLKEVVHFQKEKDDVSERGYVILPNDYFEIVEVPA
Kind of experiment: yeast two-hybrid.

Experiment [2] concerns the target T3, human chemokine SLC/CCL21, mature form (amino acids 24-134) (human, UniProt O00585 24-134).
T3 construct: GenBank NP-002980; Used as Gal4 fusion in two-hybrid and as 35S-labelled in vitro translation product in pull-downs; also called SLC/6Ckine; SLC/CCL21 wild type
T3 sequence: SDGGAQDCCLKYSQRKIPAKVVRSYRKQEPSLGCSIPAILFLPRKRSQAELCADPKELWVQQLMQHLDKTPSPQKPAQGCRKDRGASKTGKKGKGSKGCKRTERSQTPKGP
Kind of experiment: yeast two-hybrid.

The target in experiment [3] is T4, GST-THAP3 181-284 (chemokine-binding domain of THAP3) (human, UniProt Q8WTV1 136-239).
T4 construct: not shown: GST (glutathione S-transferase of pGEX2T) and its linker at the N end
T4 sequence: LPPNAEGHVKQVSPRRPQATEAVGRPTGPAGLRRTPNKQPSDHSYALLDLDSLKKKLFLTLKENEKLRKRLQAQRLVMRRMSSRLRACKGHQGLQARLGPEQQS
Kind of experiment: GST pull-down, 35S-labelled in vitro translated molecule.

For experiment [4], the target named is T5, GST-THAP1 fusion protein (THAP1 amino acids 1-213) (human, UniProt Q5RCE4 1-213 (Pongo abelii entry)).
T5 construct: Expressed in E. coli, immobilized on glutathione sepharose; also called immobilized GST-THAP1; not shown: glutathione S-transferase encoded by vector pGEX-2T (Amersham Pharmacia Biotech)
T5 sequence: T2 sequence
Kind of experiment: GST pull-down: in vitro translated 35S-labelled protein on GST-THAP1 immobilised on glutathione sepharose, SDS-PAGE, fluorography. The procedure: To confirm the results obtained in yeast, THAP1 mutants were also tested in in vitro GST pull down assays. Wild type THAP1 expressed as a GST-tagged fusion protein and immobilized on glutathione sepharose (as described in example 16), was incubated with radiolabeled in vitro translated THAP1 mutants. In vitro-translated THAP1 mutants were generated with the TNT-coupled reticulocyte lysate system (Promega, Madison, Wis., USA) using pGADT7-THAP1-C1, -C2, -C3, -N1, -N2 or -N3 vector as template. 25 μl of each ³⁵S-labelled THAP1 mutant was incubated with immobilized GST or GST-THAP1 wild-type protein overnight at 4° C., in the following binding buffer: 10 mM NaPO4 pH 8.0, 140 mM NaCl, 3 mM MgCl2, 1 mM dithiothreitol (DTT), 0.05% NP40, and 0.2 mM phenylmethyl sulphonyl fluoride (PMSF), 1 mM Na Vanadate, 50 mM β Glycerophosphate, 25 μg/ml chimotrypsine, 5 μg/ml aprotinin, 10 μg/ml Leupeptin. Beads were then washed 5 times in 1 ml binding buffer. Bound proteins were eluted with 2× Laemmli SDS-PAGE sample buffer, fractionated by 10% SDS-PAGE and visualized by fluorography using Amplify (Amersham Pharmacia Biotech). As expected, THAP1-C1, -C2, -C3, -and -N3 interacted with GST/THAP1 (FIG. 16B).

The target in experiment [5] is T6, GST (glutathione S-transferase) control protein (UniProt P08515 1-218 = GST).
T6 construct: Negative control in GST pull-down assays; also called GST beads; GST alone
T6 sequence (P08515 whole entry): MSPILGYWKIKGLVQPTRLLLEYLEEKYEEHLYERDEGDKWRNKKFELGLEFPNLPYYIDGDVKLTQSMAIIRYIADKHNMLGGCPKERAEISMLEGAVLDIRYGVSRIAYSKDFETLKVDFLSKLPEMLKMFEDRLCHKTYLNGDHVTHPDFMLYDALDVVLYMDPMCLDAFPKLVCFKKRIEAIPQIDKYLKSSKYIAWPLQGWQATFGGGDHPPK
Kind of experiment: GST pull-down, negative control: in vitro translated 35S-labelled chemokine or cytokine on GST alone immobilised on glutathione sepharose, SDS-PAGE, fluorography.

The target in experiment [6] is T2, human THAP1 …. Kind of experiment: yeast two-hybrid, THAP1 bait.
Experiment [7] has as its target T2, human THAP1 …. Kind of experiment: yeast two-hybrid, chemokine bait and THAP1 prey.
Experiment [8] has as its target T5, GST-THAP1 fusion protein (THAP1 amino …). Kind of experiment: GST pull-down: in vitro translated 35S-labelled chemokine or cytokine on the GST fusion immobilised on glutathione sepharose, SDS-PAGE, fluorography.

B1: GST-THAP2 133-228 (chemokine-binding domain of THAP2) (other)
chain: EAKKRIIKLEKEIASLRRKMKTCLQKERRATRRWIKATCLVKNLEANSVLPKGTSEHMLPTALSSLPLEDFKILEQDQQDKTLLSLNLKQTKSTFI
notes: Immobilized on glutathione sepharose; not shown: glutathione S-transferase encoded by vector pGEX2T (Amersham Biosciences)
As to B1, the binding result with chemokine CXCL8 is recorded as “no binding”.

B2: THAP1-N3 deletion mutant (amino acids 1-192) (other)
chain: MVQSCSAYGCKNRYDKDKPVSFHKFPLTRPSLCKEWEAAVRRKNFKPTKYSSICSEHFTPDCFKRECNNKLLKENAVPTIFLCTEPHDKKEDLLEPQEQLPPPPLPPPVSQVDAAIGLLMPPLQTPVNLSVFCDHNYTVEDTMHQRKRIHQLEQQVEKLRKKLKTAQQRCRRQERQLEKLKEVVHFQKEKDD
notes: Gal4 fusion, in vitro translation product or GFP fusion according to assay
In the case of B2, the binding result in experiment [1] was “binds”.

B3: THAP1-C1 deletion mutant (amino acids 90-213) (other)
chain: KEDLLEPQEQLPPPPLPPPVSQVDAAIGLLMPPLQTPVNLSVFCDHNYTVEDTMHQRKRIHQLEQQVEKLRKKLKTAQQRCRRQERQLEKLKEVVHFQKEKDDVSERGYVILPNDYFEIVEVPA
notes: Gal4 fusion, in vitro translation product or GFP fusion according to assay; also called THAP1-CL; THAP1ΔTHAP
With B3, the binding result in [1] was “binds”.

B4: THAP1-C2 deletion mutant (amino acids 120-213) (other)
chain: MPPLQTPVNLSVFCDHNYTVEDTMHQRKRIHQLEQQVEKLRKKLKTAQQRCRRQERQLEKLKEVVHFQKEKDDVSERGYVILPNDYFEIVEVPA
notes: as for B2
As to B4, the binding result in experiment [1] and in [2] was “binds” each time.

B5: THAP1-N1 deletion mutant (amino acids 1-90) (other)
chain: MVQSCSAYGCKNRYDKDKPVSFHKFPLTRPSLCKEWEAAVRRKNFKPTKYSSICSEHFTPDCFKRECNNKLLKENAVPTIFLCTEPHDKK
notes: Gal4 fusion, in vitro translation product or GFP fusion according to assay; also called zinc finger domain of THAP1
For B5, the binding result in experiment [1], in experiment [2], in experiment [3] and in experiment [4] was “no binding” each time.

B6: human chemokine MIG/CXCL9, mature form (amino acids 23-125) (ligand)
chain: TPVVRKGRCSCISTNQGTIHLQSLKDLKQFAPSPSCEKIEIIATLKNGVQTCLNPDSADVKELIKKWEKQVSQKKKQKNGKKHQKKKVLKVRKSQRSRQKKTT
notes: Residues are printed against GenBank NM-002416; Gal4 fusion or in vitro translation product
Consider B6, for which the binding result in experiment [5] is “no binding”.

B7: THAP1ΔQRCRR mutant (deletion of residues 168-172) (other)
chain: MVQSCSAYGCKNRYDKDKPVSFHKFPLTRPSLCKEWEAAVRRKNFKPTKYSSICSEHFTPDCFKRECNNKLLKENAVPTIFLCTEPHDKKEDLLEPQEQLPPPPLPPPVSQVDAAIGLLMPPLQTPVNLSVFCDHNYTVEDTMHQRKRIHQLEQQVEKLRKKLKTAQQERQLEKLKEVVHFQKEKDDVSERGYVILPNDYFEIVEVPA
Turning to B7, in [6], the binding result is given as “no binding”.

B8: THAP1-C3 deletion mutant (amino acids 143-213) (other)
chain: MHQRKRIHQLEQQVEKLRKKLKTAQQRCRRQERQLEKLKEVVHFQKEKDDVSERGYVILPNDYFEIVEVPA
notes: as for B2
As to B8, the binding result in [1] and in experiment [2] was “binds” throughout.

B9: human chemokine ELC/CCL19, mature form (amino acids 22-98) (ligand)
chain: GTNDAEDCCLSVTQKPIPGYIVRNFHYLLIKDGCRVPAVVFTTLRGRQLCAPPDQPWVERIIQRLQRTSAKMKRRSS
notes: Residues are printed against GenBank NM-006274; Gal4-BD fusion or in vitro translation product
Regarding B9, the binding result in experiment [7] is “binds”; in experiment [5], “no binding”.

B10: human cytokine interferon gamma (amino acids 21-166) (ligand)
chain: CYCQDPYVKEAENLKKYFNAGHSDVADNGTLFLGILKNWKEESDRKIMQSQIVSFYFKLFKNFKDDQSIQKSVETIKEDMNVKFFNSNKKKRDDFEKLTNYSVTDLNVQRKAIHELIQVMAELSPAAKTGKRKRSQMLFQGRRASQ
notes: Residues are given against GenBank NM-000619; Negative control; also called IFNγ; IFN
For B10, the binding result in experiment [1], in experiment [3], in experiment [8] and in [5] was “no binding” each time.
